Assay [1] has as its target BbvCI R2 subunit, wild type (Geobacillus brevis). As to the kind of experiment: SEC; purified enzyme at pH 7.5 (pH of the storage buffer); sample with 1:1 subunits by Supplementary Figure S1. In general terms: SEC sorts molecules by how far they enter the pores of the column.
Assay [2] has the same target. In words: crystal structure; crystal form 1, grown from the purified enzyme with dsDNA oligos against 0.8 M ammonium sulfate, 100 mM sodium acetate pH 4.5, 2 mM CaCl2; only R2 in the crystal.

The source of these data is paper PMC6326814.

Take BbvCI R1 subunit, wild type (enzyme): in assay [1], the stoichiometry N (usually the number of molecules, sites or subunits per partner or assembly) is 1 R1:R2.

BbvCI R2 subunit, wild type (enzyme): the stoichiometry N in assay [2] amounted to 2.
